Test: yeast display, Sf9 membrane polyspecificity reagent, FACS + sequencing; frameworks hold sequencing errors
Summary of the method: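 Genes from sorted yeast were amplified by colony PCR, read by MiSeq 2 × 250 sequencing and filtered on CDR length. These cells carried a synthetic nanobody library in Saccharomyces cerevisiae BJ5465 and were sorted by FACS into low and high (top ~1%) gates on anti-HA and streptavidin fluorescence. Polyreactivity is labelled according to the gate of origin.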

| Sequence | polyreactivity (PSR sort gate) |
| --- | --- |
| QVQLVESGGGLVQAGGSLRLSCAASGRIYGINVMGRYRQAPGKEMELVAAISYRTGSTYYADSVKGRFTISRDNAKNTVYLQMNSLKPEDTEVYYCAVRRPSSYSYGEDYWGQGTQVTVSS | high polyreactivity |
| QVQLVESGVGLVQAGGSLRLSCAASGSTFDFNAMGWYRPAPGKERELVAAITGSGGSTDYADSVKGRFTISRDNAKNTVYLQMNSLKPEDTAVYYCNAGKTIDYRDGVGYDHWGQGTQVTVSS | low polyreactivity |
| QVQLVESGGGLVQAGGSLRLSCAASGSTFRGYVMGWYRQAPGKERELVAAITWGGGRTYYADSVKGRFTISRDNAKNTVYLQMNSLKPEDTAVYYCAARVRGQGSYQFGYWGQGTQVTVSS | high polyreactivity |
| QVQLVESGGGLVQSGGSLRLSCAASGRTFYNNAMGWYRQAPGKERELVATINNRGGTTYYADSVKGRFTISRDNAKNTVYLQMNSLKPEDTAVYYCANSAQRYSYRYYYWGQGTQVTVSS | high polyreactivity |
| QVQHVESGGGLVQAGGSLRLSCAASGRTFYSYAMGWYRQAPGKERELVAAINSGGTTYYADSVKGRFTISRDNAKNTVYLEINSLKPEDTAVYYCAAVSYLFLYQGYPIAYPMYYWGQGTQVTVSS | low polyreactivity |
| QVQLVESGGGLVQAGGSLRLSCAASGSTFRYYAMGWYSQAPGKERELVASISSGGSTNYADSVKGRFTISRDNAKNTVYLQMNSLKPEDTAVYYCNADSWTVNRRYYYYRYEYWGQGTQVTVSS | low polyreactivity |
| QVQLVESGGGLVQAGGSLRLSCAASGSTFYTNAMGWYRQAPGKEREFVAAISWSGSSTYADSVKGRFTISRDNAKNTVYLQMNSLKPEDTAVYYCAADWFKLRTDYYWGQGTQVTVSS | low polyreactivity |
| QVQLVESGGGLVQAGGSLRLSCAASGCIFVRYAMGWYRQAPGKERELVAAISRSGGSTSYADSVKGRFTISRDNAKNTVYLQMNSLKPEDTAVYYCAVVRGGRGYPGYDYWGQGTQVTVSS | low polyreactivity |
| QVQLVDSGGGLVQAGGSLRLSSAASGITFQRYAMGWYRQAPGKERELVAGINGRGGSTYYADSVKGRFTISRDNAKNTVYLQMNSLKPEDTAVYYCNAVYAGRYFGFDYWGQGTQVTVSS | high polyreactivity |
| QFQLVESGGGFVQAGGSLRLSCAASGRIFYRYAMGCYSQAPGKERELVAAITWRGGSTYYADSVKGRFTISRDNANNTVYLQMNSLKPEDTAVYYCAAAAYGVPWRSYLGVFKSHMDYWGQGTQVTVSS | high polyreactivity |
| QVQLVESGGGLVQAGGSLRLSCAASGFTFGWNAMGWYRQAPGKERELVAAITSGGITNYADSVKGRFTISRDNAMNTVYLQMNSLKPEDTAVYYCNARPTSRRSWYYWKGYDYWGQGTQVTVSS | high polyreactivity |
| QVQLVESGGGLVQAGGSLRLSCAASGRTFYFYTMGWYRQAPGKERELVAAITSGGSTNYADSVKGRFTISRDNAKNTVYLQMNSLKPEDTAVYYCAAAYWRPGVRFFGPYDYWGQGTQVTVSS | high polyreactivity |
| QVQLVESGVGLVQAGGSLRLICADSGSIFSQYAMGGYRPAPGKERELVAAISKNGGSTYYADSVKGRFTISRDNAKNTVYSQMNSLKPEDTAVYYCAARVLKGYYWGQGTQVTVSS | high polyreactivity |
| QVQLVESGGGLVQAGGSLRLSCAASGSIFHTYAMGWYRQAPGKERELVAAISGIGGSTYYADSVKGRFTISRDNAKNTVYLQMNSLKPEDTAVYYCAVELYWYPGYDYWGQGTQVTVSS | low polyreactivity |
| QVQLVESGGGLVQAGGSLRLSCAASGSTFWLNAMGWYRQAPGKERELVAAITGLGGSTYYADSVKGRFTISRDTAKNTVYLQMNSLKPEDTAVYYCAAGAYRRNKSDYYYWGQGTEVTVSS | low polyreactivity |
| QVQLVESGGGLVQAGGSLRLSCAASGSTFYYNAMGWYRQAPGKERELVAGITSSGGSTYYADSVKGRFTISRDNAKNTVYLQMNSLKPEDTAVYYCAASYKRSRRGYYWGQGTQVTVSS | high polyreactivity |

| Sequence | polyreactivity (PSR sort gate) |
| --- | --- |
| QVQLVESGGGLVQAGGSLRLSCAASGNTFAQNTMGWYRQAPGKEREFVAGITFSGTGTYYADSVKGRFTISRDNAKNTVYLQMNSLKPEDTAVYYCAAESVYTWYYQDDDDYWGQGTQVTVSS | low polyreactivity |
| QVQLVESGGGLVQAGGSLRLSCAASGRIFSRYALGWYRQAPGKERELVAGITRSGTTTYYADSVKGRFTISRDNAKNTVYLQMNSLKPEDTAVYYCAAPPIGPNLYDYWGQGTQVTVSS | high polyreactivity |
| QVQLVESGGGLVQAGGSLRLSCAASGFTFGVYAMGWYRQAPGKERELVATISSSGSTNYADSVKGRFTISRDNAKNTVYLQMNSLKPEDSAVYYCAVYYLYRRRQYYYWGQGTKVTVSS | low polyreactivity |
| QDQLVESGGGLVQAGGSLRLSCAASGSIFLIYAMGGYRQAPGKERELVAAITWGGGSTYYADSVKGRFTISRDNAKNTVYLQMTSLKPVDTAVYYCAAYSYSSSFGYRYDYWGQGTQVTVSS | high polyreactivity |
| QVQHVESGGGLVQAGGSLRLSCAASGRISQIYAMGWYRQAPGKERELVARITSTDSTYYADSVKGRFTISRDNAKNTVYLQMNSLKPEDTAVYYCAASWWSPYDYWGQGTQVTVSS | low polyreactivity |
| QVQLVESGGGLVQAGGSLRLSCAASGSIFTYNAMGWYRQAPGKDRELVAAIRLSGGSTYYADSVKGRFTISRDNAKNTVYLQMTSLNPEDTAVYYCAAESAAASGVYSVEYDYWGQGTQVTVSS | low polyreactivity |
| QVQLVESGGGLVQAGGSLRLSCAASGRIFVRYAMGWYRQAPGKERELVAGITSGSRTNYADSVKGRFTISRDNAKNTVYLQMNSLKPEDTAVYYCNARVFRYYGIFDYWGQGTQVTVSS | high polyreactivity |
| QGQLQESGGGLVQAAGSLRMSCAASGTIFSEANMGWYRQAPGQVRELVATIGQGSTTNYADSVKGRFTISRDNAKNTVYLQMISLKPEETGVYYCAVVTVDPVGFVYWGQGTQVTVSS | low polyreactivity |
| QVQLVESGGGLVQAGGSLRLSCAASVLTFITNVMVWYRQAPGKERELVAVISSRGGTTYYADSVKGRFTISRDNAKNTVYLQMNSLKPEETAVYYCNRVRSPKYDWGQGTQVTVSS | high polyreactivity |
| QVQLVESGGGLVQAGGSLRLSCAASGSTFESYAMGWYRQAPGKERELVAAISGRVGSTYYADSVKGRFTISRDNAKNTVYLQMNSLKPEDTAVYYCASKGWYSHYGGYDYWGQGTQVTVSS | low polyreactivity |
| QVQLVESGGGLVQAGGSLRLSCAASGGIFNINAMGWYRQAPGKERELVAGINWSDTGTYYADSVKGRFTISRDNAKNTVYLQMNSLKPEDTAVYDCAVSGYPVYITYVSYDYDYWGQGTQVTVSS | low polyreactivity |
| QVQLVESGGGLVQAGGSLRLSCAASGSTFYLYAMGWYRQAPGKERELVASITYSGASTYYADSVKGRFTISRDNAKNTVYLQMNSQKPEDTAVYYCAADQRGWFAVGSQRKYNYWGQGTQVTVSS | low polyreactivity |
| QVQLVESGGGLVQAGGSLRLSCAASGSTFARNAMGWYRQAPGKEREFVATISSSGGRTYYADSVKGRFTISRDIAKNTVYLQMNSLNPEDTAVYYCNKALRTYPLFYYWGQGTQVTVSS | high polyreactivity |
| QVQLVESGGGFVQAGGSLRLSCAASGSILSGYAMGWYRPAPGKERELVAAITSGGDTNYADSVKGRFTISRDNAKNTVYLQMNSLKPEDTAVYYCNRRGDFRIAYYDPMDYWGQGTQVTVSS | low polyreactivity |
| QVQLVESGGGLVQAGGSLRLSCAASGLILNYYTMGWYRQAPGKERELVATISSSTGSTYYADSVKGRFTISRDNAKNTVYLQMNSLKPEDTAVYYCASDHWSYWQIYDYWGQGTQVTVSS | low polyreactivity |
